Experiments:
[1] = biological target: T1, human neonatal Fc receptor (hFcRn) (human, UniProt P55899 24-290; P61769 21-119); assay: BLI (Octet), association pH 6, dissociation pH 7.4
T1 construct: Biotinylated in the ELISA, Octet and yeast assays; also called human FcRn; huFcRn
Text: To further characterize some of the variant Fc-fragments identified by the phage ELISA, binding of the variant Fc-fragments to FcRn at pH 6 and 7.4 was characterized for a subset of the identified variant Fc-fragments. DNA encoding selected variant Fc-fragment isolates, all from library L5, was introduced into a mammalian expression vector, which was used to transfect 293 6E cells using deacylated PEI essentially as described by Thomas et al. (Proc. Natl. Acad. Sci. 102(16): 5679-5684, 2005), the relevant portions of which are incorporated herein by reference. […] Concentrations were calculated using a standard curve created with a purified Fc fusion protein.
Biotinylated hFcRn at 100 nM was captured on streptavidin (SA) biosensors (ForteBio Inc., 18-5019) off-line at RT for 2 hours. Using these biotinylated hFcRn-coated SA biosensors in the Octet Red® system, association and dissociation of unlabeled proteins can be detected in real time via […] of light. […] Three association and dissociation conditions were set up: (1) association at pH 6 and dissociation at pH 6; (2) association at pH 6 and dissociation at pH 7.4; and (3) association at pH 7.4 and dissociation at pH 7.4. SA biosensors coated with biotinylated hFcRN were dipped into buffer at a specific pH for 1 min and then soaked in the samples containing variant Fc-fragments or controls at a specific pH for 5 min to allow binding to FcRn. The Fc biosensors were then soaked in buffer at a specific pH for 5 minutes more to allow the bound Fc-fragments to dissociate from FcRn. Detection of binding and dissociation of the Fc-fragments was possible through the use of bio-layer interferometry as implemented using the Octet Red® system, so that binding and dissociation were detected in real time.

[2] = biological target: T1, human neonatal Fc receptor (hFcRn); assay: SPR competition pH 5.5
[3] = biological target: T1, human neonatal Fc receptor (hFcRn); assay: phage ELISA pH 6;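 also: higher score means stronger binding and above about 3 to 5 exceeds background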
[4] = biological target: T1, human neonatal Fc receptor (hFcRn); assay: phage ELISA pH 7.4;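 also: higher score means stronger binding and above about 3 to 5 exceeds background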
[5] = biological target: T2, cynomolgus monkey FcRn (cynomolgus monkey, UniProt Q8SPV9 24-297; Q8SPW0 21-119, limits assumed); assay: SPR competition pH 5.5
T2 construct: also called Cynomolgus FcRn
T2 sequence (Q8SPV9 24-297 limits assumed, chain 1 of 2): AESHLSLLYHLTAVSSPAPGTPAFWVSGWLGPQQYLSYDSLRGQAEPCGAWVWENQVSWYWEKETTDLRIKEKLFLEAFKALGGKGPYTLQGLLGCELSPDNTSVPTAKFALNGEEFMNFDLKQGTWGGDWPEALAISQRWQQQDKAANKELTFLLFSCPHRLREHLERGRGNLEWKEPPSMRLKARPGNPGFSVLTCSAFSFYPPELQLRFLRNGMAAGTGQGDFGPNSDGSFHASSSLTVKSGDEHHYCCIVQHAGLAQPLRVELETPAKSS
T2 sequence (Q8SPW0 21-119 limits assumed, chain 2 of 2): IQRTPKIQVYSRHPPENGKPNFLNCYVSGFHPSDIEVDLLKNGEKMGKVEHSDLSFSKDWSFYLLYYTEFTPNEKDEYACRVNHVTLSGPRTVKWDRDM
Description: Binding of variant Fc-fragments to human and cynomolgus monkey FcRn was tested using a BIAcore® T100 analysis system (GE Healthcare Bio-Sciences AB Private Limited Liability Company, Uppsala, Sweden) at both pH 5.5 and pH 7.4. The test consisted of incubating various concentrations of the variant Fc-fragments or control Fc-fragments with a fixed amount of human or cynomolgus monkey FcRn under binding conditions and subsequently measuring the amount of free, unbound FcRn in these mixtures by binding to a surface (in a flow cell of a CM5 (Biacore) chip) on which an Fc-fragment was immobilized. […] Thus, the amount of unbound FcRn in the mixture was quantitatively ascertained by surface plasmon resonance through use of the BIAcore® T100 analysis system. […] Initially, a group of 23 variant-Fc-fragments (Fc-5-1 being considered a control) identified in the experiments described above were tested for binding to human FcRn.
To obtain a reasonable signal for the different molecules and conditions tested, different assay conditions were used. For assays at pH 5.5, 10 nM of human or cynomolgus monkey FcRn was mixed with serial dilutions of the variant and control Fc-fragments being tested (which ranged from 0.1˜2,000 nM) and incubated for 1 hour at room temperature in 10 mM sodium acetate, pH 5.5, 150 mM NaCl, 0.005% P20, 0.1 mg/mL BSA. As positive controls, […] human and cynomolgus monkey FcRn were each incubated in the same solution, for the same time, and at the same temperature described immediately above, but without an added Fc-fragment.

Row | binding result [1] | EC50 [2] | Binder | also measured
1 |  | 140 nM | variant Fc-fragment Fc-5-69-W1Y (other, also called Fc-5-69-WIY) EPKSCDKTHTCPPCPAPELLGGPSVFLFPPKPKDTLMISRTPEVTCVVVDVSHEDPEVKFNWYVDGVEVHNAKTKPREEQYNSTYRVVSVLTVLHQDWLNGKEYKCKVSNKALPAPIEKTISKAKGQPREPQVYTLPPSRDELTKNQVSLTCLVKGFYPSDIAVEWESNGGCYPLQDYCGGGQPENNYKTTPPVLDSDGSFFLYSKLTVDKSRWQQGNVFSCSVMHEALHNHYTQKSLSLSPGK | 
2 |  | 27 nM | variant Fc-fragment Fc-5-106-M4A (other) EPKSCDKTHTCPPCPAPELLGGPSVFLFPPKPKDTLMISRTPEVTCVVVDVSHEDPEVKFNWYVDGVEVHNAKTKPREEQYNSTYRVVSVLTVLHQDWLNGKEYKCKVSNKALPAPIEKTISKAKGQPREPQVYTLPPSRDELTKNQVSLTCLVKGFYPSDIAVEWESNGGCVFNAFNCGGGQPENNYKTTPPVLDSDGSFFLYSKLTVDKSRWQQGNVFSCSVMHEALHNHYTQKSLSLSPGK | 
3 |  | 58 nM | variant Fc-fragment Fc-5-106-M4S (other) EPKSCDKTHTCPPCPAPELLGGPSVFLFPPKPKDTLMISRTPEVTCVVVDVSHEDPEVKFNWYVDGVEVHNAKTKPREEQYNSTYRVVSVLTVLHQDWLNGKEYKCKVSNKALPAPIEKTISKAKGQPREPQVYTLPPSRDELTKNQVSLTCLVKGFYPSDIAVEWESNGGCVFNSFNCGGGQPENNYKTTPPVLDSDGSFFLYSKLTVDKSRWQQGNVFSCSVMHEALHNHYTQKSLSLSPGK | 
4 |  | 100 nM | variant Fc-fragment Fc-5-106-M4H (other) EPKSCDKTHTCPPCPAPELLGGPSVFLFPPKPKDTLMISRTPEVTCVVVDVSHEDPEVKFNWYVDGVEVHNAKTKPREEQYNSTYRVVSVLTVLHQDWLNGKEYKCKVSNKALPAPIEKTISKAKGQPREPQVYTLPPSRDELTKNQVSLTCLVKGFYPSDIAVEWESNGGCVFNHFNCGGGQPENNYKTTPPVLDSDGSFFLYSKLTVDKSRWQQGNVFSCSVMHEALHNHYTQKSLSLSPGK | 
5 |  | 100 nM | variant Fc-fragment Fc-5-106-M4N (other) EPKSCDKTHTCPPCPAPELLGGPSVFLFPPKPKDTLMISRTPEVTCVVVDVSHEDPEVKFNWYVDGVEVHNAKTKPREEQYNSTYRVVSVLTVLHQDWLNGKEYKCKVSNKALPAPIEKTISKAKGQPREPQVYTLPPSRDELTKNQVSLTCLVKGFYPSDIAVEWESNGGCVFNNFNCGGGQPENNYKTTPPVLDSDGSFFLYSKLTVDKSRWQQGNVFSCSVMHEALHNHYTQKSLSLSPGK | 
6 |  | 100 nM | variant Fc-fragment Fc-5-106-M4G (other) EPKSCDKTHTCPPCPAPELLGGPSVFLFPPKPKDTLMISRTPEVTCVVVDVSHEDPEVKFNWYVDGVEVHNAKTKPREEQYNSTYRVVSVLTVLHQDWLNGKEYKCKVSNKALPAPIEKTISKAKGQPREPQVYTLPPSRDELTKNQVSLTCLVKGFYPSDIAVEWESNGGCVFNGFNCGGGQPENNYKTTPPVLDSDGSFFLYSKLTVDKSRWQQGNVFSCSVMHEALHNHYTQKSLSLSPGK | 

Continued, binder first:

Row | Binder | binding result [1] | EC50 [2] | also measured
7 | variant Fc-fragment 5-1-1 (other) EPKSCDKTHTCPPCPAPELLGGPSVFLFPPKPKDTLMISRTPEVTCVVVDVSHEDPEVKFNWYVDGVEVHNAKTKPREEQYNSTYRVVSVLTVLHQDWLNGKEYKCKVSNKALPAPIEKTISKAKGQPREPQVYTLPPSRDELTKNQVSLTCLVKGFYPSDIAVEWEGGCGMPIEFCGGSNGQPENNYKTTPPVLDSDGSFFLYSKLTVDKSRWQQGNVFSCSVMHEALHNHYTQKSLSLSPGK | binds |  | 
8 | variant Fc-fragment 5-1-6 (other) EPKSCDKTHTCPPCPAPELLGGPSVFLFPPKPKDTLMISRTPEVTCVVVDVSHEDPEVKFNWYVDGVEVHNAKTKPREEQYNSTYRVVSVLTVLHQDWLNGKEYKCKVSNKALPAPIEKTISKAKGQPREPQVYTLPPSRDELTKNQVSLTCLVKGFYPSDIAVEWESNGQPEGGCGMPIEFCGGNNYKTTPPVLDSDGSFFLYSKLTVDKSRWQQGNVFSCSVMHEALHNHYTQKSLSLSPGK | binds |  | 
9 | variant Fc-fragment 5-1-9 (other) EPKSCDKTHTCPPCPAPELLGGPSVFLFPPKPKDTLMISRTPEVTCVVVDVSHEDPEVKFNWYVDGVEVHNAKTKPREEQYNSTYRVVSVLTVLHQDWLNGKEYKCKVSNKALPAPIEKTISKAKGQPREPQVYTLPPSRDELTKNQVSLTCLVKGFYPSDIAVEWESGGCGMPIEFCGGPENNYKTTPPVLDSDGSFFLYSKLTVDKSRWQQGNVFSCSVMHEALHNHYTQKSLSLSPGK | binds |  | 
10 | variant Fc-fragment 5-1-5 (other) EPKSCDKTHTCPPCPAPELLGGPSVFLFPPKPKDTLMISRTPEVTCVVVDVSHEDPEVKFNWYVDGVEVHNAKTKPREEQYNSTYRVVSVLTVLHQDWLNGKEYKCKVSNKALPAPIEKTISKAKGQPREPQVYTLPPSRDELTKNQVSLTCLVKGFYPSDIAVEWESNGQPGGCGMPIEFCGGENNYKTTPPVLDSDGSFFLYSKLTVDKSRWQQGNVFSCSVMHEALHNHYTQKSLSLSPGK | binds |  | 
11 | variant Fc-fragment 5-1-10 (other) EPKSCDKTHTCPPCPAPELLGGPSVFLFPPKPKDTLMISRTPEVTCVVVDVSHEDPEVKFNWYVDGVEVHNAKTKPREEQYNSTYRVVSVLTVLHQDWLNGKEYKCKVSNKALPAPIEKTISKAKGQPREPQVYTLPPSRDELTKNQVSLTCLVKGFYPSDIAVEWESGGGCGMPIEFCGGGPENNYKTTPPVLDSDGSFFLYSKLTVDKSRWQQGNVFSCSVMHEALHNHYTQKSLSLSPGK | binds |  | 
12 | variant Fc-fragment 5-1-2 (other) EPKSCDKTHTCPPCPAPELLGGPSVFLFPPKPKDTLMISRTPEVTCVVVDVSHEDPEVKFNWYVDGVEVHNAKTKPREEQYNSTYRVVSVLTVLHQDWLNGKEYKCKVSNKALPAPIEKTISKAKGQPREPQVYTLPPSRDELTKNQVSLTCLVKGFYPSDIAVEWESGGCGMPIEFCGGNGQPENNYKTTPPVLDSDGSFFLYSKLTVDKSRWQQGNVFSCSVMHEALHNHYTQKSLSLSPGK | binds |  | 
13 | variant Fc-fragment 5-1-3 (other) EPKSCDKTHTCPPCPAPELLGGPSVFLFPPKPKDTLMISRTPEVTCVVVDVSHEDPEVKFNWYVDGVEVHNAKTKPREEQYNSTYRVVSVLTVLHQDWLNGKEYKCKVSNKALPAPIEKTISKAKGQPREPQVYTLPPSRDELTKNQVSLTCLVKGFYPSDIAVEWESNGGGCGMPIEFCGGQPENNYKTTPPVLDSDGSFFLYSKLTVDKSRWQQGNVFSCSVMHEALHNHYTQKSLSLSPGK | binds |  | 
14 | variant Fc-fragment Fc-5-69 (other, soluble elsewhere) EPKSCDKTHTCPPCPAPELLGGPSVFLFPPKPKDTLMISRTPEVTCVVVDVSHEDPEVKFNWYVDGVEVHNAKTKPREEQYNSTYRVVSVLTVLHQDWLNGKEYKCKVSNKALPAPIEKTISKAKGQPREPQVYTLPPSRDELTKNQVSLTCLVKGFYPSDIAVEWESNGGCWPLQDYCGGGQPENNYKTTPPVLDSDGSFFLYSKLTVDKSRWQQGNVFSCSVMHEALHNHYTQKSLSLSPGK |  | 20 nM | ELISA score [3]: 76.7; ELISA score [4]: 0.6; EC50 [5]: 18 nM
15 | variant Fc-fragment 5-1-4 (other) EPKSCDKTHTCPPCPAPELLGGPSVFLFPPKPKDTLMISRTPEVTCVVVDVSHEDPEVKFNWYVDGVEVHNAKTKPREEQYNSTYRVVSVLTVLHQDWLNGKEYKCKVSNKALPAPIEKTISKAKGQPREPQVYTLPPSRDELTKNQVSLTCLVKGFYPSDIAVEWESNGQGGCGMPIEFCGGPENNYKTTPPVLDSDGSFFLYSKLTVDKSRWQQGNVFSCSVMHEALHNHYTQKSLSLSPGK | binds |  | 
